Read-outs that look alike come from different tables or passages of the source. Ends that are not written are not given here.
Assays:
[1] = molecular target: T1, human recombinant adrenomedullin receptor (CRLR+RAMP3) (human); experiment: cell-based or functional assay
[2] = molecular target: T1, human recombinant adrenomedullin …; experiment: cell-based or functional assay; remark: listed apart in the source

T1 sequence (Q16602 whole entry, chain 1 of 2): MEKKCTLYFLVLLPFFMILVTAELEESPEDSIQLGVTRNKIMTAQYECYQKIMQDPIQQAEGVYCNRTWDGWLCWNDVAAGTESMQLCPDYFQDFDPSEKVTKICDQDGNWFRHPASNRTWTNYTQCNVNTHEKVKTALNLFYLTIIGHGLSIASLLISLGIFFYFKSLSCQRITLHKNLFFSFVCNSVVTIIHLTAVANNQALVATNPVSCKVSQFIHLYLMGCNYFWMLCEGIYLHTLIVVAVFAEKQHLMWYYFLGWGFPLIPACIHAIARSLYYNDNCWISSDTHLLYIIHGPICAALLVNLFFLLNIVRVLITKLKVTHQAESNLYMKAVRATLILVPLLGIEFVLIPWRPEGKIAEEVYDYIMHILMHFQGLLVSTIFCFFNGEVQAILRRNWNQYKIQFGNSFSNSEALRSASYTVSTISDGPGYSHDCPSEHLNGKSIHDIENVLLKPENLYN
T1 sequence (O60896 whole entry, chain 2 of 2, further chain): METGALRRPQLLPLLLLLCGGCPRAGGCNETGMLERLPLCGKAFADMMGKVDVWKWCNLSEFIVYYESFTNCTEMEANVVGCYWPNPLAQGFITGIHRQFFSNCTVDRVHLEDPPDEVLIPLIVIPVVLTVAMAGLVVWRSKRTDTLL

Binder	EC50 (read off the curve); cAMP (HTRF), % activation [1]	EC50 (read off the curve); cAMP (HTRF), % activation [2]
YRQSMNQGSRSNGCRFGTCTFQKLAHQIYQLTDKDKDGMAPRNKISPQGY-NH2 (ends and bridges not checked) [Murine ADM 1-50]	~0.08 nM	
mature human Adrenomedullin (amino acids 1-52) (ends and bridges not checked) peptide: YRQSMNNFQGLRSFGCRFGTCTVQKLAHQIYQFTDKDKDNVAPRSKISPQGY-NH2		~1 nM

From patent publication US20230104578A1 (ADRENOMED, published 2023)
